Measured values published in patent publication US20260266848A1, “COMPOSITIONS AND METHODS FOR DIAGNOSING AND TREATING DYSTONIA” (Duke University, priority 2023, published 2026).

These molecules were tested on DYT1 patient plasma derived EVs (assay: Plasma-derived EV proteomics (ExoQuick ULTRA, DIA LC/MS/MS), DYT1 vs Healthy Controls). Conditions: Hs. Plasma EVs (DYT1/WT); significance of genotype difference.
Parameters: species or system human
Experimental: Data was obtained for extracellular vesicles using previously acquired samples. The ExoQuick® ULTRA EV Isolation System was used to fractionate and enrich EVs from plasma. Isolated plasma EV samples were then submitted to proteomic analysis by the Duke Proteomics and Metabolomics Core Facility (DPMCF). At the DPMCF, quantitative (LC/MS/MS) was performed on 500 ng of each sample, using an EvoSep One UPLC system coupled to a Thermo Orbitrap Astral high-resolution accurate mass tandem mass spectrometer (Thermo). Briefly, the sample was eluted directly from an Evotip which was subjected to a low organic wash and then subjected to an analytical separation using a 1.7 μm EvoSep 150 um ID×15 cm endurance (EveoSep) column running an SPD30 gradient from approximately 5 to 30% acetonitrile with 0.1% formic acid with a column temperature of 50 C. Data collection on the Orbitrap Astral mass spectrometer was performed in a data-independent acquisition (DIA) mode of acquisition with a r=240,000 (@m/z 200) full MS scan from m/z 380-980 with a target AGC value of 4e5 ions. Fixed DIA, windows of 4 m/z from m/z 380 to 980 DIA MS/MS scans were acquired in the Astral with a target AGC value of 5e4 and a max fill time of 6 ms. HCD collision energy setting of 27% was used for all MS2 scans.

Row | Molecule | -LogP
1 | RAP2B (protein, UniProt P61225 1-180, looked up) Ras-related protein Rap-2b: MREYKVVVLGSGGVGKSALTVQFVTGSFIEKYDPTIEDFYRKEIEVDSSPSVLEILDTAGTEQFASMRDLYIKNGQGFILVYSLVNQQSFQDIKPMRDQIIRVKRYERVPMILVGNKVDLEGEREVSYGEGKALAEEWSCPFMETSAKNKASVDELFAEIVRQMNYAAQPNGDEGCCSAC | 2.656
2 | PRPSAP2 (protein, UniProt O60256 1-369, looked up) Phosphoribosyl pyrophosphate …: MFCVTPPELETKMNITKGGLVLFSANSNSSCMELSKKIAERLGVEMGKVQVYQEPNRETRVQIQESVRGKDVFIIQTVSKDVNTTIMELLIMVYACKTSCAKSIIGVIPYFPYSKQCKMRKRGSIVSKLLASMMCKAGLTHLITMDLHQKEIQGFFNIPVDNLRASPFLLQYIQEEIPDYRNAVIVAKSPASAKRAQSFAERLRLGIAVIHGEAQDAESDLVDGRHSPPMVRSVAAIHPSLEIPMLIPKEKPPITVVGDVGGRIAIIVDDIIDDVDSFLAAAETLKERGAYKIFVMATHGLLSSDAPRRIEESAIDEVVVTNTIPHEVQKLQCPKIKTVDISMILSEAIRRIHNGESMSYLFRNIGLDD | 1.629
3 | NDNF (protein, UniProt Q8TB73 20-568, looked up) Protein NDNF: QKLPTRDEELFQMQIRDKAFFHDSSVIPDGAEISSYLFRDTPKRYFFVVEEDNTPLSVTVTPCDAPLEWKLSLQELPEDRSGEGSGDLEPLEQQKQQIINEEGTELFSYKGNDVEYFISSSSPSGLYQLDLLSTEKDTHFKVYATTTPESDQPYPELPYDPRVDVTSLGRTTVTLAWKPSPTASLLKQPIQYCVVINKEHNFKSLCAVEAKLSADDAFMMAPKPGLDFSPFDFAHFGFPSDNSGKERSFQAKPSPKLGRHVYSRPKVDIQKICIGNKNIFTVSDLKPDTQYYFDVFVVNINSNMSTAYVGTFARTKEEAKQKTVELKDGKITDVFVKRKGAKFLRFAPVSSHQKVTFFIHSCLDAVQIQVRRDGKLLLSQNVEGIQQFQLRGKPKAKYLVRLKGNKKGASMLKILATTRPTKQSFPSLPEDTRIKAFDKLRTCSSATVAWLGTQERNKFCIYKKEVDDNYNEDQKKREQNQCLGPDIRKKSEKVLCKYFHSQNLQKAVTTETIKGLQPGKSYLLDVYVIGHGGHSVKYQSKVVKTRKFC | 1.312
4 | WDR26 (protein, UniProt Q9H7D7 1-661, looked up) WD repeat-containing protein …: MQANGAGGGGGGGGGGGGGGGGGGGQGQTPELACLSAQNGESSPSSSSSAGDLAHANGLLPSAPSAASNNSNSLNVNNGVPGGAAAASSATVAAASATTAASSSLATPELGSSLKKKKRLSQSDEDVIRLIGQHLNGLGLNQTVDLLMQESGCRLEHPSATKFRNHVMEGDWDKAENDLNELKPLVHSPHAIVVRGALEISQTLLGIIVRMKFLLLQQKYLEYLEDGKVLEALQVLRCELTPLKYNTERIHVLSGYLMCSHAEDLRAKAEWEGKGTASRSKLLDKLQTYLPPSVMLPPRRLQTLLRQAVELQRDRCLYHNTKLDNNLDSVSLLIDHVCSRRQFPCYTQQILTEHCNEVWFCKFSNDGTKLATGSKDTTVIIWQVDPDTHLLKLLKTLEGHAYGVSYIAWSPDDNYLVACGPDDCSELWLWNVQTGELRTKMSQSHEDSLTSVAWNPDGKRFVTGGQRGQFYQCDLDGNLLDSWEGVRVQCLWCLSDGKTVLASDTHQRIRGYNFEDLTDRNIVQEDHPIMSFTISKNGRLALLNVATQGVHLWDLQDRVLVRKYQGVTQGFYTIHSCFGGHNEDFIASGSEDHKVYIWHKRSELPIAELTGHTRTVNCVSWNPQIPSMMASASDDGTVRIWGPAPFIDHQNIEEECSSMDS | 1.772
5 | LIPG (protein, UniProt Q9Y5X9 21-500, looked up) Endothelial lipase: SPVPFGPEGRLEDKLHKPKATQTEVKPSVRFNLRTSKDPEHEGCYLSVGHSQPLEDCSFNMTAKTFFIIHGWTMSGIFENWLHKLVSALHTREKDANVVVVDWLPLAHQLYTDAVNNTRVVGHSIARMLDWLQEKDDFSLGNVHLIGYSLGAHVAGYAGNFVKGTVGRITGLDPAGPMFEGADIHKRLSPDDADFVDVLHTYTRSFGLSIGIQMPVGHIDIYPNGGDFQPGCGLNDVLGSIAYGTITEVVKCEHERAVHLFVDSLVNQDKPSFAFQCTDSNRFKKGICLSCRKNRCNSIGYNAKKMRNKRNSKMYLKTRAGMPFRVYHYQMKIHVFSYKNMGEIEPTFYVTLYGTNADSQTLPLEIVERIEQNATNTFLVYTEEDLGDLLKIQLTWEGASQSWYNLWKEFRSYLSQPRNPGRELNIRRIRVKSGETQRKLTFCTEDPENTSISPGRELWFRKCRDGWRMKNETSPTVELP | 1.303
6 | GART (protein, UniProt P22102 2-1010, looked up) Trifunctional purine …: AARVLIIGSGGREHTLAWKLAQSHHVKQVLVAPGNAGTACSEKISNTAISISDHTALAQFCKEKKIEFVVVGPEAPLAAGIVGNLRSAGVQCFGPTAEAAQLESSKRFAKEFMDRHGIPTAQWKAFTKPEEACSFILSADFPALVVKASGLAAGKGVIVAKSKEEACKAVQEIMQEKAFGAAGETIVIEELLDGEEVSCLCFTDGKTVAPMPPAQDHKRLLEGDGGPNTGGMGAYCPAPQVSNDLLLKIKDTVLQRTVDGMQQEGTPYTGILYAGIMLTKNGPKVLEFNCRFGDPECQVILPLLKSDLYEVIQSTLDGLLCTSLPVWLENHTALTVVMASKGYPGDYTKGVEITGFPEAQALGLEVFHAGTALKNGKVVTHGGRVLAVTAIRENLISALEEAKKGLAAIKFEGAIYRKDVGFRAIAFLQQPRSLTYKESGVDIAAGNMLVKKIQPLAKATSRSGCKVDLGGFAGLFDLKAAGFKDPLLASGTDGVGTKLKIAQLCNKHDTIGQDLVAMCVNDILAQGAEPLFFLDYFSCGKLDLSVTEAVVAGIAKACGKAGCALLGGETAEMPDMYPPGEYDLAGFAVGAMERDQKLPHLERITEGDVVVGIASSGLHSNGFSLVRKIVAKSSLQYSSPAPDGCGDQTLGDLLLTPTRIYSHSLLPVLRSGHVKAFAHITGGGLLENIPRVLPEKLGVDLDAQTWRIPRVFSWLQQEGHLSEEEMARTFNCGVGAVLVVSKEQTEQILRDIQQHKEEAWVIGSVVARAEGSPRVKVKNLIESMQINGSVLKNGSLTNHFSFEKKKARVAVLISGTGSNLQALIDSTREPNSSAQIDIVISNKAAVAGLDKAERAGIPTRVINHKLYKNRVEFDSAIDLVLEEFSIDIVCLAGFMRILSGPFVQKWNGKMLNIHPSLLPSFKGSNAHEQALETGVTVTGCTVHFVAEDVDAGQIILQEAVPVKRGDTVATLSERVKLAEHKIFPAALQLVASGTVQLGENGKICWVKEE | 1.317
